According to patent US20180312587A1 (ADURO BIOTECH HOLDINGS EUROPE B V, published 2018):

Columns and labels:
[1] = molecular target: T1, human SIRPβ1 (human, UniProt O00241 30-398); experiment: CELISA, CHO-K1 transfectants; nd = not detected
T1 construct: also called hSIRPβ1
Experimental: (§1) Binding of the humanized antibodies to hSIRPα was studied in CELISA format. Binding of the hSIRPα antibodies to human SIRPαV1, SIRPαV2, hSIRPβ1, and hSIRPγ was confirmed using CHO-K1 cells that had been transiently transfected with cDNA encoding the full length open reading frame of each of these respective targets subcloned into the pCI-neo vector. CHO-K1.hSIRPαV1, CHO-K1.hSIRPαV2, CHO-K1.hSIRPβ1, and CHO-K1.hSIRPγ cells were seeded in culture medium (DMEM-F12 (Gibco) supplemented with 5% New Born Calf Serum (BioWest) and Pen/Strep (Gibco)) in 96-well flat-bottom tissue culture plates and incubated at 37° C., 5% CO₂ and 95% humidity until cell layers were confluent. Subsequently, culture medium was removed and cells were incubated for 1 hour at 37° C., 5% CO₂ and 95% humidity with purified hSIRPα antibodies (10 μg/mL and dilutions thereof). Next, cells were washed with PBS-T and incubated for 1 hour at 37° C., 5% CO₂ and 95% humidity with goat-anti-human IgG-HRP conjugate (Jackson Immuno Research) or goat-anti-mouse IgG-HRP (Southern Biotech). Subsequently, cells were washed three times with PBS-T and anti-hSIRPα immunoreactivity was visualized with TMB Stabilized Chromogen (Invitrogen). Reactions were stopped with 0.5 M H₂SO₄ and absorbances were read at 450 and 610 nm. […] In Table 13 the EC50 values of the humanized hSIRPα antibodies are depicted.
(§2) Table 13: Binding of humanized and parental hSIRPα.50A antibodies to CHO-K1.hSIRPαV1, CHO-K1.hSIRPαV2, CHO-K1.hSIRPβ1, and CHO-K1.hSIRPγ cells.

[2] = molecular target: T2, human SIRPγ (human, UniProt Q9P1W8 29-387); experiment: CELISA, CHO-K1 transfectants; extrapolated
T2 construct: on transfected CHO-K1 cells; also called hSIRPγ
Experimental: as §1, §2

[3] = molecular target: T3, human SIRPα variant 2 (human, UniProt P78324 31-504); experiment: CELISA, CHO-K1 transfectants; average of two experiments
T3 construct: full length ORF on transfected CHO-K1 cells; also called hSIRPαV2; SIRPαV2
Experimental: as §1, §2

[4] = molecular target: T4, human SIRPα variant 1 (human, UniProt P78324 31-504); experiment: as above
T4 construct: full length ORF on transfected CHO-K1 or HEK293 cells; entry includes the signal peptide; also called hSIRPαV1; SIRPαV1
Experimental: as §1, §2

T2 sequence (Q9P1W8 29-387 limits assumed): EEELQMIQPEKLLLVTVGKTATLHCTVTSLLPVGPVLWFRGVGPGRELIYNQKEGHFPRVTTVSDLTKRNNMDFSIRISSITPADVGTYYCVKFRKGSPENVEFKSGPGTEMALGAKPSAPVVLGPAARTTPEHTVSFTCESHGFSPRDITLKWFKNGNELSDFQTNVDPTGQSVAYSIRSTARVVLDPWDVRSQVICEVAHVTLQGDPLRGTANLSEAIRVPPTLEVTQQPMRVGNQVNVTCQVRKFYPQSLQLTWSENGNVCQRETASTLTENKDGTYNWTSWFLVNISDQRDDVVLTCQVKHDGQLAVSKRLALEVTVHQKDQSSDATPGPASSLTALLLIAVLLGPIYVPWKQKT
T4 sequence (P78324 31-504 limits assumed, change not shown): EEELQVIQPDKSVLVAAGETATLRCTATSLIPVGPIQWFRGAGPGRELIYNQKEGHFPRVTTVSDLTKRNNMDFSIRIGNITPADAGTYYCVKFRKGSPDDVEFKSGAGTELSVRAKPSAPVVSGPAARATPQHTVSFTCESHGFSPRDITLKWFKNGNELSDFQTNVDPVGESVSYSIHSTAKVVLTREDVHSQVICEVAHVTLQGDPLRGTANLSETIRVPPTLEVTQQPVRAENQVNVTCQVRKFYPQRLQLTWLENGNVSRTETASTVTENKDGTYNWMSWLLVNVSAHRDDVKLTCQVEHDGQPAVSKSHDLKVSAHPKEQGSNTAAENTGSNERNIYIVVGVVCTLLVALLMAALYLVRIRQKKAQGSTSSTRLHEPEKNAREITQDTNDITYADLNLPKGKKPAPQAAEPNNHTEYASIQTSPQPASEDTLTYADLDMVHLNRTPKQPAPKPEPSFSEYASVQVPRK
T1 sequence (O00241 30-398 limits assumed): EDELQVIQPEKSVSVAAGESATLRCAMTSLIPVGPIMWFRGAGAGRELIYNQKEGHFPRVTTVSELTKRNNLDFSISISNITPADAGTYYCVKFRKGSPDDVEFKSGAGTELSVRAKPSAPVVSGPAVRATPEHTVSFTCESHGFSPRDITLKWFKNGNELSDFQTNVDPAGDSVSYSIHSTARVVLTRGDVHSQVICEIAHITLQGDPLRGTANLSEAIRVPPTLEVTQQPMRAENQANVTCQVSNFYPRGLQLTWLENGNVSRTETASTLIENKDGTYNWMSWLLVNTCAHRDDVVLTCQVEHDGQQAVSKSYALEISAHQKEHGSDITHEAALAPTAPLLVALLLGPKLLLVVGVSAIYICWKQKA
T3 sequence (P78324 other isoform, or with tags, fused parts or gaps mutant limits assumed): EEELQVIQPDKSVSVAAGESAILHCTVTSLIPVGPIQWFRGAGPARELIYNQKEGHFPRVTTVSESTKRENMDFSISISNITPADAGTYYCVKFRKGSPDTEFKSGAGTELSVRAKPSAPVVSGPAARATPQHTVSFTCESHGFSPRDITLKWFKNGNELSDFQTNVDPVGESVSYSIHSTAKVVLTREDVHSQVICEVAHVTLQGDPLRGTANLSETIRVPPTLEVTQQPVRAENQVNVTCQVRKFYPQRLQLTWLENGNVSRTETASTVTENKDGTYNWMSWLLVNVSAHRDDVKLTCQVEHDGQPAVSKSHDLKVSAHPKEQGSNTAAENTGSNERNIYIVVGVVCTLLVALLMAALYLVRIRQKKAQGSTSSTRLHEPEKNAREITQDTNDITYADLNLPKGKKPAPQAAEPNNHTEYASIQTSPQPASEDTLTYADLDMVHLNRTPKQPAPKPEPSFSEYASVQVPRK

Binder	binding result [1]	EC50 [2] [nM]	EC50 [3] [nM]	EC50 [4] [nM]
hSIRPα.50A.H1L2 (antibody, human IgG4 S228P, kappa, V domains shown, human IgG4 S228P, kappa; also called hSIRPα.50H1L2) VH: EVQLQQSGAEVVKPGASVKVSCKASGFTFTNYYIHWVRQAPGQGLEWIGWIYPGNVNTKYNEKFKARVTITADKSTSTAYMDLSSLRSEDTAVYYCARPTIIATDFDVWGQGTTVTVSS VL: DIVMTQSPSSLSASVGDRVTITCKASQGVGTAVGWYQQKPGKAPKLLIYWASTRHTGVPDRFSGSGSGTDFTLTISNLQPEDFADYYCQQYSTYPFTFGGGTKVEIKR	no binding (tested: 10 µg/mL and dilutions thereof)	1.26	0.816	0.781
hSIRPα.50A.H1L3 (antibody, human IgG4 S228P, kappa, V domains shown, human IgG4 S228P, kappa; also called hSIRPα.50H1L3) VH: EVQLQQSGAEVVKPGASVKVSCKASGFTFTNYYIHWVRQAPGQGLEWIGWIYPGNVNTKYNEKFKARVTITADKSTSTAYMDLSSLRSEDTAVYYCARPTIIATDFDVWGQGTTVTVSS VL: ELVMTQSPSSLSASVGDRVTITCKASQGVGTAVGWYQQKPGKAPKLLIYWASTRHTGVPDRFSGSGSGTDFTLAISSLQPEDIADYYCQQYSTYPFTFGGGTKVEIKR	no binding (tested: 10 µg/mL and dilutions thereof)	2.58	1.11	1.09
hSIRPα.50A.H3L2 (antibody, human IgG4 S228P, kappa, V domains shown, human IgG4 S228P, kappa; also called hSIRPα.50H3L2) VH: EVQLVQSGAEVVKPGASVMISCKASGFTFTNYYIHWVRQRPGQGLEWIGWIYPGNVNTKYNEKFKARVIMTADKSTSTVYMQLSSLTSEDTAVYYCARPTIIATDFDVWGQGTLVTVSS VL: DIVMTQSPSSLSASVGDRVTITCKASQGVGTAVGWYQQKPGKAPKLLIYWASTRHTGVPDRFSGSGSGTDFTLTISNLQPEDFADYYCQQYSTYPFTFGGGTKVEIKR	no binding (tested: 10 µg/mL and dilutions thereof)	1.5	0.999	1.05
hSIRPα.50A.H1L4 (antibody, human IgG4 S228P, kappa, V domains shown, human IgG4 S228P, kappa; also called hSIRPα.50H1L4) VH: EVQLQQSGAEVVKPGASVKVSCKASGFTFTNYYIHWVRQAPGQGLEWIGWIYPGNVNTKYNEKFKARVTITADKSTSTAYMDLSSLRSEDTAVYYCARPTIIATDFDVWGQGTTVTVSS VL: DIQMTQSPSSLSASVGDRVTITCKASQGVGTAVGWYQKKPGKVPKLLIYWASTRHTGVPDRFSGSGSGTDFTLTINGLQPEDVATYYCQQYSTYPFTFGGGTKLEIKR	no binding (tested: 10 µg/mL and dilutions thereof)	7.43	1.62	1.49
hSIRPα.50A.H4L2 (antibody, human IgG4 S228P, kappa, V domains shown, human IgG4 S228P, kappa; also called hSIRPα.50H4L2) VH: EVQLQQSGAELVKPGASVKVSCKASGFTFTNYYIHWVRQRPGQGLEWMGWIYPGNVNTKYNEKFKAKATITADKSTSTAYMELSSLTSEDTAVYYCARPTIIATDFDVWGQGTTVTVSS VL: DIVMTQSPSSLSASVGDRVTITCKASQGVGTAVGWYQQKPGKAPKLLIYWASTRHTGVPDRFSGSGSGTDFTLTISNLQPEDFADYYCQQYSTYPFTFGGGTKVEIKR	no binding (tested: 10 µg/mL and dilutions thereof)	0.871	0.651	0.737
hSIRPα.50A.H1L5 (antibody, human IgG4 S228P, kappa, V domains shown, human IgG4 S228P, kappa; also called hSIRPα.50H1L5) VH: EVQLQQSGAEVVKPGASVKVSCKASGFTFTNYYIHWVRQAPGQGLEWIGWIYPGNVNTKYNEKFKARVTITADKSTSTAYMDLSSLRSEDTAVYYCARPTIIATDFDVWGQGTTVTVSS VL: DIVLTQSPSFLSASVGDRVTITCKASQGVGTAVGWYQQKPGKSPKLLIYWASTRHTGVPDRFSGSGSGTEFTLTISNLQPEDFAAYYCQQYSTYPFTFGGGTKLEIKR	no binding (tested: 10 µg/mL and dilutions thereof)	1.01	0.848	0.962
hSIRPα.50A.H1L1 (antibody, human IgG4 S228P, kappa, V domains shown, human IgG4 S228P, kappa; also called hSIRPα.50H1L1) VH: EVQLQQSGAEVVKPGASVKVSCKASGFTFTNYYIHWVRQAPGQGLEWIGWIYPGNVNTKYNEKFKARVTITADKSTSTAYMDLSSLRSEDTAVYYCARPTIIATDFDVWGQGTTVTVSS VL: DIVLTQSPSFLSASVGDRVTITCKASQGVGTAVGWYQQKPGKAPKLLIYWASTRHTGVPDRFSGSGSGTEFTLTISSLQPEDFAAYYCQQYSTYPFTFGGGTKLEIKR	no binding (tested: 10 µg/mL and dilutions thereof)	1.49	0.864	0.883
